B1: GST-Galectin-8 (other)
chain: MMLSLNNLQNIIYNPVIPFVGTIPDQLDPGTLIVIRGHVPSDADRFQVDLQNGSSMKPRADVAFHFNPRFKRAGCIVCNTLINEKWGREEITYDTPFKREKSFEIVIMVLKDKFQVAVNGKHTLLYGHRIGPEKIDTLGIYGKVNIHSIGFSFSSDLQSTQASSLELTEISRENVPKSGTPQLPSNRGGDISKIAPRTVYTKSKDSTVNHTLTCTKIPPMNYVSKRLPFAARLNTPMGPGRTVVVKGEVNANAKSFNVDLLAGKSKDIALHLNPRLNIKAFVRNSFLQESWGEEERNITSFPFSPGMYFEMIIYCDVREFKVAVNGVHSLEYKHRFKELSSIDTLEINGDIHLLEVRSW
notes: not shown: GST tag (fusion expressed in E. coli SoluBL21)
B2: endogenous ULK1 (enzyme, UniProt O75385 1-1050, looked up)
chain: MEPGRGGTETVGKFEFSRKDLIGHGAFAVVFKGRHREKHDLEVAVKCINKKNLAKSQTLLGKEIKILKELKHENIVALYDFQEMANSVYLVMEYCNGGDLADYLHAMRTLSEDTIRLFLQQIAGAMRLLHSKGIIHRDLKPQNILLSNPAGRRANPNSIRVKIADFGFARYLQSNMMAATLCGSPMYMAPEVIMSQHYDGKADLWSIGTIVYQCLTGKAPFQASSPQDLRLFYEKNKTLVPTIPRETSAPLRQLLLALLQRNHKDRMDFDEFFHHPFLDASPSVRKSPPVPVPSYPSSGSGSSSSSSSTSHLASPPSLGEMQQLQKTLASPADTAGFLHSSRDSGGSKDSSCDTDDFVMVPAQFPGDLVAEAPSAKPPPDSLMCSGSSLVASAGLESHGRTPSPSPPCSSSPSPSGRAGPFSSSRCGASVPIPVPTQVQNYQRIERNLQSPTQFQTPRSSAIRRSGSTSPLGFARASPSPPAHAEHGGVLARKMSLGGGRPYTPSPQVGTIPERPGWSGTPSPQGAEMRGGRSPRPGSSAPEHSPRTSGLGCRLHSAPNLSDLHVVRPKLPKPPTDPLGAVFSPPQASPPQPSHGLQSCRNLRGSPKLPDFLQRNPLPPILGSPTKAVPSFDFPKTPSSQNLLALLARQGVVMTPPRNRTLPDLSEVGPFHGQPLGPGLRPGEDPKGPFGRSFSTSRLTDLLLKAAFGTQAPDPGSTESLQEKPMEIAPSAGFGGSLHPGARAGGTSSPSPVVFTVGSPPSGSTPPQGPRTRMFSAGPTGSASSSARHLVPGPCSEAPAPELPAPGHGCSFADPITANLEGAVTFEAPDLPEETLMEQEHTEILRGLRFTLLFVQHVLEIAALKGSASEAAGGPEYQLQESVVADQISLLSREWGFAEQLVLYLKVAELLSSGLQSAIDQIRAGKLCLSSTVKQVVRRLNELYKASVVSCQGLSLRLQRFFLDKQRLLDRIHSITAERLIFSHAVQMVQSAALDEMFQHREGCVPRYHKALLLLEGLQHMLSDQADIENVTKCKLCIERRLSALLTGICA

How the values were obtained:
[1] = biological target: T1, [35S] myc-HA-TRIM16 wild type (in vitro translated) (human, UniProt O95361 1-564, [35S]-methionine radiolabel); assay: GST pull-down of in vitro translated 35S-labelled TRIM
T1 construct: not shown: Myc-HA tag

[2] = biological target: T2, 35S-Myc-HA-TRIM21 (in vitro translated) (human, UniProt P19474 1-475, [35S]-methionine radiolabel); assay: as above
T2 construct: not shown: Myc-HA tag
T2 sequence (P19474 whole entry): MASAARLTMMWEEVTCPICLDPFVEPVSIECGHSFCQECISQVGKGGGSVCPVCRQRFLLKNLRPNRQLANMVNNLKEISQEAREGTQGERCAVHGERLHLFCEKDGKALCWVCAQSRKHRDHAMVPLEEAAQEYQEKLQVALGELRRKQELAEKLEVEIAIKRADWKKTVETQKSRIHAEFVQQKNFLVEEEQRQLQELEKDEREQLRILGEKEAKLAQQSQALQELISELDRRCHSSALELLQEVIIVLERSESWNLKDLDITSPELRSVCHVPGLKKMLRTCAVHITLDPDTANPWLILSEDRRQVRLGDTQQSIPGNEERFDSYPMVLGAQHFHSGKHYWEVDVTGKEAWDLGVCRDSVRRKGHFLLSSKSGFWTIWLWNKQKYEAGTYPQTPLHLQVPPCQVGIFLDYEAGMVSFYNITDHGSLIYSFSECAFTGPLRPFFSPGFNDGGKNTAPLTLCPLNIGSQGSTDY

[3] = biological target: Optineurin (UniProt Q96CV9 1-577, limits assumed); assay: GST-galectin-8 pull-down with Sequestosome 1-like receptors
Chain of Optineurin (Q96CV9 whole entry): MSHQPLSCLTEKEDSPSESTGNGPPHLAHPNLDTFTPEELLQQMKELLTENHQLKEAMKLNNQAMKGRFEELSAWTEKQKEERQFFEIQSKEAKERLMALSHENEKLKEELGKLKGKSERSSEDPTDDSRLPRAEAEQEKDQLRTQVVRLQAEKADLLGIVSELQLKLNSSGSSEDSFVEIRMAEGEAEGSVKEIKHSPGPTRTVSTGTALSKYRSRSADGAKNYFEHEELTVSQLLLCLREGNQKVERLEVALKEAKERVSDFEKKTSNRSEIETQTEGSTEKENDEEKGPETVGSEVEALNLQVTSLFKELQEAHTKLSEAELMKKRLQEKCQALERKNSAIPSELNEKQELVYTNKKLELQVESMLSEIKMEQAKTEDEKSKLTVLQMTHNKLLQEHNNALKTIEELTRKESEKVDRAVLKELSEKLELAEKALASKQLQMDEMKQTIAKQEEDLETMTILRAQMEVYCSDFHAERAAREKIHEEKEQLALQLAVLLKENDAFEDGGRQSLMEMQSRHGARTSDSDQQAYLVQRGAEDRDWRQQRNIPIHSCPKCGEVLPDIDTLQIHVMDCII
Text: GST-fusion proteins were expressed in Escherichia coli SoluBL21 (Amsbio). […] The [³⁵S] labeled proteins were produced using the TNT T7 Quick Coupled Transcription/Translation System (Promega) in the presence of [³⁵S] L-methionine. The proteins were eluted from washed beads by boiling in SDS-PAGE gel loading buffer. separated by SDS-PAGE, and radiolabeled proteins were detected in a Fujifilm bioimaging analyzer BAS-5000 (Fuji).

[4] = biological target: T3, endogenous TRIM16 (human, UniProt O95361 1-564); assay: co-IP of endogenous proteins, HeLa lysates
T3 construct: Endogenous protein, immunoprecipitated from cell lysates

Row | Binder | binding result [1] | binding result [2] | binding result [3] | binding result [4]
1 | B1 | no binding | no binding | no binding | 
2 | B2 |  |  |  | binds

— patent publication US20240261378A1 (UNM RAINFOREST INNOVATIONS, published 2024)
